The target in assay [1] is T1, recombinant human PAD2 (human, UniProt Q9Y2J8 1-665, enzymatically biotinylated on an Avi-tag (when captured on the SPR chip)).
T1 construct: also called hPAD2; Human PAD2 (RD220)
Description: SPR (Biacore 8K), N-terminally tagged against C-terminally tagged recombinant PAD2.

The target in assay [2] is T2, mouse PAD2, recombinant, tags at the N-terminus (mouse, UniProt Q08642 1-673, enzymatically biotinylated on an Avi-tag where captured on streptavidin).
T2 construct: not shown: N-terminal tags incl; Avi-tag
The assay is described as follows: SPR; biotinylated PAD2 on C1-streptavidin, antibody flowed over.

In assay [3] the target is T3, human PAD2, recombinant, tags at the N-terminus (human, UniProt Q9Y2J8 1-665, enzymatically biotinylated on an Avi-tag where captured on streptavidin).
T3 construct: not shown: N-terminal tags incl; Avi-tag
The assay is described as above.

Assay [4] has as its target T4, cynomolgus PAD2, recombinant, tags at the N-terminus (cynomolgus, UniProt G7NUR0 1-665, enzymatically biotinylated on an Avi-tag where captured on streptavidin).
T4 construct: also called Cyno PAD2; not shown: N-terminal tags incl; Avi-tag
The description is as above.

The target in assay [5] is T2, mouse PAD2, recombinant, tags at the …. The assay is described as above. The source holds these as a separate data set.
The target of assay [6] is T3, human PAD2, recombinant, tags at the …. The description is as above. The source holds these as a separate data set.
The target of assay [7] is T4, cynomolgus PAD2, recombinant, tags at …. The assay is described as above. The source holds these as a separate data set.
The target of assay [8] is T5, recombinant mouse PAD2 (mouse, UniProt Q08642 1-673).
T5 construct: Recombinant and tagged
The assay is described as follows: ratio of SPR KDs, mouse PAD2 against human PAD2; biotinylated PAD captured on C1-streptavidin, antibody flowed over.

Assay [9] concerns the target T5, recombinant mouse PAD2. Description: ratio of SPR KDs, mouse PAD2 against human PAD2; biotinylated antibody captured on C1-streptavidin, PAD flowed over.
In assay [10] the target is T6, huFcRn (human, UniProt P55899 24-297; P61769 21-119, limits assumed).
T6 construct: also called human neonatal Fc receptor
Description: huFcRn affinity chromatography, pH gradient elution.

For assay [11], the target named is T2, mouse PAD2, recombinant, tags at the …. Description: SPR; biotinylated antibody on C1-streptavidin, PAD2 flowed over.
In assay [12] the target is T3, human PAD2, recombinant, tags at the …. The description is as above.
The target in assay [13] is T4, cynomolgus PAD2, recombinant, tags at …. The description is as above.
The target in assay [14] is T2, mouse PAD2, recombinant, tags at the …. The description is as above. The source holds these as a separate data set.
Assay [15] addresses T3, human PAD2, recombinant, tags at the …. The description is as above. The source holds these as a separate data set.
The target in assay [16] is T4, cynomolgus PAD2, recombinant, tags at …. Described as above. This is another data set of the same source.
For assay [17], the target named is T7, PAD4 (species not stated) (Homo sapiens (Human), UniProt Q9UM07 1-663, Biotinylated in the specificity ELISA. The SPR material was enzymatically biotinylated on an Avi-tag.).
T7 construct: Biotinylated in the specificity ELISA; monomer and dimer forms seen in iSCAT; also called biotinylated PAD4; not shown: Avi-tag and any purification tag on the recombinant PAD4
Description: specificity ELISA: biotinylated PAD on a streptavidin plate, detection with anti-human IgG Fc HRP, fluorescence (RFU); antibody concentration not given.

Assay [18] addresses T8, PAD2 (species not stated) (Homo sapiens (Human), UniProt Q9Y2J8 1-665, Biotinylated in the specificity ELISA. The SPR material was enzymatically biotinylated on an Avi-tag.).
T8 construct: Biotinylated in the specificity ELISA; also called biotinylated PAD2; not shown: Avi-tag and any purification tag on the recombinant PAD2
The description is as above.

Assay [19] addresses T1, recombinant human PAD2. Description: specificity ELISA: biotinylated PAD on a streptavidin plate, detection with anti-human IgG Fc HRP, Binding (RFU); antibody concentration not given.
Assay [20] addresses T9, recombinant human PAD4 (human, UniProt Q9UM07 1-663, enzymatically biotinylated on an Avi-tag (when captured on the SPR chip)).
T9 construct: also called hPAD4; Human PAD4 (RD223)
The description is as above.

B1: Clone 22 (141LO0035 hIgG1 pgl-4), anti-PAD2, as Fab (Fab, V domains shown)
VH: not shown
VL: SYVLTQPPSVSVSPGQTASITCSGDKVGDKYVSWYQQKPGQSPVLVIYQDSQRPSGIPERFSGSNSGNTATLTISGTQAMDEADYYCQTWAPDVLLFGSGTKVTVL
notes: also called Clone 22 (Fab); anti-PAD2 Fab
As to B1, the “fold higher affinity than in the previous assay (Table 69)” value in assay [1] came to 10 fold.

B2: anti-PAD2 Clone 22 (141LO0035 hIgG1 pgl-4), Fab (Fab, V domains shown)
VH: not shown
VL: SYVLTQPPSVSVSPGQTASITCSGDKVGDKYVSWYQQKPGQSPVLVIYQDSQRPSGIPERFSGSNSGNTATLTISGTQAMDEADYYCQTWAPDVLLFGSGTKVTVL
notes: Tested as Fab; also called Clone 22 (Fab)
On to B2, for which the dissociation constant (Kd) came to 0.131 nM in assay [2]; 0.0131 nM in assay [3]; 0.0292 nM in assay [4]; 0.131 nM in assay [5]; 0.0131 nM in [6]; 0.0292 nM in assay [7]. In addition, the koff in assay [5] was 0.000462 s⁻¹; in assay [6], 4.77e-05 s⁻¹; in [7], 7.03e-05 s⁻¹. Moreover, the kon in assay [5] stood at 3.59e+06 M⁻¹ s⁻¹; in [6] it was 3.67e+06 M⁻¹ s⁻¹; in assay [7], 2.39e+06 M⁻¹ s⁻¹.

B3: Clone 22 (Fab) (141LO0035 hIgG1 pgl-4) (Fab, V domains shown)
VH: not shown
VL: SYVLTQPPSVSVSPGQTASITCSGDKVGDKYVSWYQQKPGQSPVLVIYQDSQRPSGIPERFSGSNSGNTATLTISGTQAMDEADYYCQTWAPDVLLFGSGTKVTVL
notes: Tested as a Fab; Only the variable domains are tied to Clone 22; also called anti-PAD2 Fab
Consider B3, for which the “fold difference in KD, mouse/human” value in [8] was found to be 10 fold.

B4: Clone 12 (Bis3, FQQ-YTE; Fab anti-PAD2, scFv anti-PAD4) (bispecific antibody, human IgG1, lambda)
heavy: not shown
light: SYVLTQPPSVSVSPGQTASITCSGDKVGDKYVSWYQQKPGQSPVLVIYQDSQRPSGIPERFSGSNSGNTATLTISGTQAMDEADYYCQTWAPDVLLFGSGTKVTVLGQPKAAPSVTLFPPSSEELQANKATLVCLISDFYPGAVTVAWKADSSPVKAGVETTTPSKQSNNKYAASSYLSLTPEQWKSHRSYSCQVTHEGSTVEKTVAPTECS
notes: Bivalent bispecific IgG-HC-scFv; also called PAD240012; Bis3 = scFv (PAD4)-Fab(PAD2)
With B4, the “fold difference in KD, mouse/human” value in assay [9] was 2.1 fold. In addition, in assay [10], the “HPLC retention” value was determined as 22.8 min and the Relative retention was determined as 0.746.

B5: Clone 12, Bis3 anti-PAD2 Fab / anti-PAD4 scFv, Fc FQQ-YTE (bispecific antibody, human IgG1, lambda)
heavy: not shown
light: SYVLTQPPSVSVSPGQTASITCSGDKVGDKYVSWYQQKPGQSPVLVIYQDSQRPSGIPERFSGSNSGNTATLTISGTQAMDEADYYCQTWAPDVLLFGSGTKVTVLGQPKAAPSVTLFPPSSEELQANKATLVCLISDFYPGAVTVAWKADSSPVKAGVETTTPSKQSNNKYAASSYLSLTPEQWKSHRSYSCQVTHEGSTVEKTVAPTECS
notes: Bivalent for PAD2 and for PAD4; In the rows marked ^# the antibody was chemically biotinylated; also called PAD240012
Turning to B5, the Kd turned out to be 0.0142 nM in assay [11]; 0.00676 nM in [12]; 0.0138 nM in [13]; 0.0142 nM in assay [14]; 0.00676 nM in assay [15]; 0.0138 nM in assay [16]. In addition, the koff is 6.89e-05 s⁻¹ in assay [11], 4.05e-05 s⁻¹ in assay [12] and 5.74e-05 s⁻¹ in [13]. In addition, the kon in [11] was determined as 4.85e+06 M⁻¹ s⁻¹; in assay [12], 5.6e+06 M⁻¹ s⁻¹; in [13], 4.19e+06 M⁻¹ s⁻¹.

B6: R347 Bis3 FQQYTE (antibody, human IgG1, lambda)
light chain: ELVLTQPASVSGSPGQSITISCTGTSSDVGGYNYVSWYQQHPGKAPKLMIYDVSKRPSGVSNRFSGSKSGNTASLTISGLQAEDEADYYCSSYTSSSTLVFGGGTKLTVLGQPKAAPSVTLFPPSSEELQANKATLVCLISDFYPGAVTVAWKADSSPVKAGVETTTPSKQSNNKYAASSYLSLTPEQWKSHRSYSCQVTHEGSTVEKTVAPTECS
heavy chain with C-terminal scFv: EVQLLESGGGLVQPGGSLRLSCTTSGFTFNTYAMSWVRQAPGKGLEWLSGINNNGRTAFYADSVKGRFTISRDNSKNTLYLQINSLRADDTAVYFCAKDVRFIAVPGDSWGQGTLVTVSSASTKGPSVFPLAPSSKSTSGGTAALGCLVKDYFPEPVTVSWNSGALTSGVHTFPAVLQSSGLYSLSSVVTVPSSSLGTQTYICNVNHKPSNTKVDKRVEPKSCDKTHTCPPCPAPEFQGGPSVFLFPPKPKDTLYITREPEVTCVVVDVSHEDPEVKFNWYVDGVEVHNAKTKPREEQYNSTYRVVSVLTVLHQDWLNGKEYKCQVSNKALPAPIEKTISKAKGQPREPQVYTLPPSREEMTKNQVSLTCLVKGFYPSDIAVEWESNGQPENNYKTTPPVLDSDGSFFLYSKLTVDKSRWQQGNVFSCSVMHEALHNHYTQKSLSLSPGKGGGGSGGGGSEVQLLESGGGLVQPGGSLRLSCTTSGFTFNTYAMSWVRQAPGKGLEWLSGINNNGRTAFYADSVKGRFTISRDNSKNTLYLQINSLRADDTAVYFCAKDVRFIAVPGDSWGQGTLVTVSSGGGGSGGGGSGGGGSGGGGSELVLTQPASVSGSPGQSITISCTGTSSDVGGYNYVSWYQQHPGKAPKLMIYDVSKRPSGVSNRFSGSKSGNTASLTISGLQAEDEADYYCSSYTSSSTLVFGGGTKLTVL
notes: also called Bis3 control (R347)
For B6, the binding result in assay [17], in assay [18], in assay [19] and in [20] was “no binding” throughout.

Source of the values: US20240199761A1 (AstraZeneca / MedImmune, published 2024).
